Experimental data: PMC9482650, “Quantitative fragmentomics allow affinity mapping of interactomes” (Nature Communications, 2022)

T1: APBA2_1, Q99767
T1 sequence (Q99767 563-664, limits assumed, looked up): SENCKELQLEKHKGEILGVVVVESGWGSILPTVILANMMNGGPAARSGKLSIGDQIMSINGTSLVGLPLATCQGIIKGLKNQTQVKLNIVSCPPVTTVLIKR

T2: APBA2_2, Q99767
T2 sequence (Q99767 654-744, limits assumed, looked up): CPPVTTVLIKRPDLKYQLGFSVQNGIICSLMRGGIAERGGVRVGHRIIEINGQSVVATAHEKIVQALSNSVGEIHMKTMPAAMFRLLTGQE

T3: CARD11, Q9BXL7
T3 sequence (Q9BXL7 662-765, limits assumed, looked up): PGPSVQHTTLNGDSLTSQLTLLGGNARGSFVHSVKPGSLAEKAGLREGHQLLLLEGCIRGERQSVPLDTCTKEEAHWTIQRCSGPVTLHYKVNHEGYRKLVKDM

T4: DVL3, Q92997
T4 sequence (Q92997 244-331, limits assumed, looked up): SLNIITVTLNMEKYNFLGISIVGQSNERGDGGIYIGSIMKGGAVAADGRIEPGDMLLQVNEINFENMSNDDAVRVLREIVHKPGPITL

T5: FRMPD1, Q5SYB0
T5 sequence (Q5SYB0 52-145, limits assumed, looked up): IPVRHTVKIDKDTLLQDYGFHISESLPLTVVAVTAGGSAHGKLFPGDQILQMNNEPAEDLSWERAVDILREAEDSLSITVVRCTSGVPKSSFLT

T6: GRIP1_7, Q9Y3R0
T6 sequence (Q9Y3R0 999-1096, limits assumed, looked up): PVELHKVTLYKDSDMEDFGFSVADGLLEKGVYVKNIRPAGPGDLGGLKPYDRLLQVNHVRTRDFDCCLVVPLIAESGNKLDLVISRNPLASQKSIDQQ

T7: HTRA4, P83105
T7 sequence (P83105 378-476, limits assumed, looked up): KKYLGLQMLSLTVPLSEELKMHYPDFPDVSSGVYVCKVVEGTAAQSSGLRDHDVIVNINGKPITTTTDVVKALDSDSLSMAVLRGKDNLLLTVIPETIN

T8: LNX2_2, Q8N448
T8 sequence (Q8N448 334-432, limits assumed, looked up): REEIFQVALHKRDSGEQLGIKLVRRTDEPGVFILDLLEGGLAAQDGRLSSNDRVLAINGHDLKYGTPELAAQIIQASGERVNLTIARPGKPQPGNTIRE

T9: MPDZ_12, O75970
T9 sequence (O75970 1857-1958, limits assumed, looked up): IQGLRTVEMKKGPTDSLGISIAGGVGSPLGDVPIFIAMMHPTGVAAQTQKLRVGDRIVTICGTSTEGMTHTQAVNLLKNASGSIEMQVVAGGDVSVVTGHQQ

T10: MPP2, Q14168
T10 sequence (Q14168 180-250, limits assumed, looked up): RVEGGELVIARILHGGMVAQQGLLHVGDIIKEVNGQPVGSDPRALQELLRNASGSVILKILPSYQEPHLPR

T11: MPP7, Q5T2T1
T11 sequence (Q5T2T1 134-230, limits assumed, looked up): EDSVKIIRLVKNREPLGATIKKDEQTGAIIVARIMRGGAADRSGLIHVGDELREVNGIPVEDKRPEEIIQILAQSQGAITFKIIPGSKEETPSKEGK

T12: NHERF3_3, Q5T2W1
T12 sequence (Q5T2W1 238-333, limits assumed, looked up): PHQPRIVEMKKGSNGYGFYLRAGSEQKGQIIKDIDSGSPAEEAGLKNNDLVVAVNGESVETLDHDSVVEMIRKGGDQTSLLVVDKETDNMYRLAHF

T13: PDZD7_3, Q9H5P4
T13 sequence (Q9H5P4 857-944, limits assumed, looked up): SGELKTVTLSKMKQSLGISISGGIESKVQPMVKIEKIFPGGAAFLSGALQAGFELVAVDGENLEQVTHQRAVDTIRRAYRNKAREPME

T14: SNTG1, Q9NSN8
T14 sequence (Q9NSN8 52-150, limits assumed, looked up): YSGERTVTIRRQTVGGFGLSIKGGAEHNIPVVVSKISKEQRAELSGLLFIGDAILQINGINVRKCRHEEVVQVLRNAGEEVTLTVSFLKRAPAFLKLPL

T15: TIAM2, Q8IVF5
T15 sequence (Q8IVF5 885-986, limits assumed, looked up): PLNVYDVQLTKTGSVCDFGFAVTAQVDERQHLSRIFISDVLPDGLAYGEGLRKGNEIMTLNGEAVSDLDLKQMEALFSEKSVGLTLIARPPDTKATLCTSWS


Assays:
Assay in all cases: holdup assay
Set-up in all cases: key: below the threshold = too weak to quantify, mostly under pKd 3.1 to 4
Settings in all cases: plain residues with an end cap or a label only (N-terminal biotin on a linker: ado-ado)
AHNAK1, Q09666 = biological target: AHNAK1, Q09666
AHNAK1, Q09666, sequence (Q09666 4-100): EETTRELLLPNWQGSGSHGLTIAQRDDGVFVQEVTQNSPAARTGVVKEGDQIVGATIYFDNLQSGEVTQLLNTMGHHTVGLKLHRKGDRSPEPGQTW

APBA2_1, Q99767 = biological target: T1, APBA2_1, Q99767
APBA2_2, Q99767 = biological target: T2, APBA2_2, Q99767
ARHGEF12, Q9NZN5-2 = biological target: ARHGEF12, Q9NZN5-2
ARHGEF12, Q9NZN5-2, sequence (Q9NZN5 other isoform, or with tags, fused parts or gaps): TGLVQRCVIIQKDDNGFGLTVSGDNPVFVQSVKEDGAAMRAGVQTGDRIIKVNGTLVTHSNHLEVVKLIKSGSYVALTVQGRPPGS

CARD11, Q9BXL7 = biological target: T3, CARD11, Q9BXL7
DVL3, Q92997 = biological target: T4, DVL3, Q92997
FRMPD1, Q5SYB0 = biological target: T5, FRMPD1, Q5SYB0
GRIP1_7, Q9Y3R0 = biological target: T6, GRIP1_7, Q9Y3R0
GRIP2_3, Q9C0E4 = biological target: GRIP2_3, Q9C0E4
GRIP2_3, Q9C0E4, sequence (Q9C0E4 238-339): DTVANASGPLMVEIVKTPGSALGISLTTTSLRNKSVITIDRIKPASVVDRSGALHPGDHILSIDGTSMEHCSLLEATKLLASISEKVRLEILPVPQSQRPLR

HTRA4, P83105 = biological target: T7, HTRA4, P83105
Inadl_3, Q8NI35 = biological target: Inadl_3, Q8NI35
Inadl_3, Q8NI35, sequence (Q8NI35 359-469): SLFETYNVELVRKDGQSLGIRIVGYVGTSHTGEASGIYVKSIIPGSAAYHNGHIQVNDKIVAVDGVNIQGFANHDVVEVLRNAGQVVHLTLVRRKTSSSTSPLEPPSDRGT

LIMK2, P53671 = biological target: LIMK2, P53671
LIMK2, P53671, sequence (P53671 143-248): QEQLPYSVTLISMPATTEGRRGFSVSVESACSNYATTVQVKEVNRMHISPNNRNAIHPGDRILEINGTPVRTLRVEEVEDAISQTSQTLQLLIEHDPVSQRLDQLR

LNX2_2, Q8N448 = biological target: T8, LNX2_2, Q8N448
MAST2, Q6P0Q8 = biological target: MAST2, Q6P0Q8
MAST2, Q6P0Q8, sequence (Q6P0Q8 1099-1202): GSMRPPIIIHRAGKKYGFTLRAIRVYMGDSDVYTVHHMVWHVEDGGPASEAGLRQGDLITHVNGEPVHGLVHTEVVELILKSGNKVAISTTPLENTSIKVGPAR

MPDZ_12, O75970 = biological target: T9, MPDZ_12, O75970
MPP2, Q14168 = biological target: T10, MPP2, Q14168
MPP7, Q5T2T1 = biological target: T11, MPP7, Q5T2T1
NHERF3_3, Q5T2W1 = biological target: T12, NHERF3_3, Q5T2W1
PDZD7_3, Q9H5P4 = biological target: T13, PDZD7_3, Q9H5P4
SCRIB_1, Q14160 = biological target: SCRIB_1, Q14160
SCRIB_1, Q14160, sequence (Q14160 718-814): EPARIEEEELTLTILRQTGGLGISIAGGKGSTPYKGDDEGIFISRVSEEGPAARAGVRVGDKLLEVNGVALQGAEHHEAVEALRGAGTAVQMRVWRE

SNTG1, Q9NSN8 = biological target: T14, SNTG1, Q9NSN8
TIAM2, Q8IVF5 = biological target: T15, TIAM2, Q8IVF5
TJP1_2, Q07157 = biological target: TJP1_2, Q07157
TJP1_2, Q07157, sequence (Q07157 181-274): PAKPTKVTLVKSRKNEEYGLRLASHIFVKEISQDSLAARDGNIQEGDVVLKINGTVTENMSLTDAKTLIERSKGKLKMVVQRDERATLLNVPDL

Row | Binder | pKd (AHNAK1, Q09666) | pKd (APBA2_1, Q99767) | pKd (APBA2_2, Q99767) | pKd (ARHGEF12, Q9NZN5-2) | pKd (CARD11, Q9BXL7) | pKd (DVL3, Q92997) | pKd (FRMPD1, Q5SYB0) | pKd (GRIP1_7, Q9Y3R0) | pKd (GRIP2_3, Q9C0E4) | pKd (HTRA4, P83105) | pKd (Inadl_3, Q8NI35) | pKd (LIMK2, P53671) | pKd (LNX2_2, Q8N448) | pKd (MAST2, Q6P0Q8) | pKd (MPDZ_12, O75970) | pKd (MPP2, Q14168) | pKd (MPP7, Q5T2T1) | pKd (NHERF3_3, Q5T2W1) | pKd (PDZD7_3, Q9H5P4) | pKd (SCRIB_1, Q14160) | further results
1 | QRYPGNQTTC [CCL24, O00175] | below the threshold | below the threshold | below the threshold | 4.15 | below the threshold | below the threshold | below the threshold | below the threshold | below the threshold | below the threshold | below the threshold | below the threshold | 3.58 | 4.74 | below the threshold | below the threshold | below the threshold | below the threshold | below the threshold | 3.92 | pKd (SNTG1, Q9NSN8): below the threshold; pKd (TIAM2, Q8IVF5): 4.09; pKd (TJP1_2, Q07157): below the threshold
2 | PKSNSSKEYV [CLDN7, O95471] | below the threshold | below the threshold | below the threshold | below the threshold | below the threshold | below the threshold | below the threshold | below the threshold | below the threshold | below the threshold | below the threshold | below the threshold | below the threshold | 3.65 | below the threshold | below the threshold | below the threshold | below the threshold | below the threshold | below the threshold | pKd (SNTG1, Q9NSN8): below the threshold; pKd (TIAM2, Q8IVF5): below the threshold; pKd (TJP1_2, Q07157): below the threshold
3 | KLQNPNQSVV [TYRP1, P17643] | below the threshold | below the threshold | below the threshold | 3.92 | below the threshold | below the threshold | below the threshold | below the threshold | below the threshold | 3.94 | below the threshold | below the threshold | 4.32 | 4.7 | below the threshold | below the threshold | below the threshold | below the threshold | 4.22 | 3.52 | pKd (SNTG1, Q9NSN8): 3.47; pKd (TIAM2, Q8IVF5): below the threshold; pKd (TJP1_2, Q07157): below the threshold
